Key:
McbD = target: T1, McbD (Escherichia coli, UniProt P23186 1-396); assay: crystal structure
T1 sequence: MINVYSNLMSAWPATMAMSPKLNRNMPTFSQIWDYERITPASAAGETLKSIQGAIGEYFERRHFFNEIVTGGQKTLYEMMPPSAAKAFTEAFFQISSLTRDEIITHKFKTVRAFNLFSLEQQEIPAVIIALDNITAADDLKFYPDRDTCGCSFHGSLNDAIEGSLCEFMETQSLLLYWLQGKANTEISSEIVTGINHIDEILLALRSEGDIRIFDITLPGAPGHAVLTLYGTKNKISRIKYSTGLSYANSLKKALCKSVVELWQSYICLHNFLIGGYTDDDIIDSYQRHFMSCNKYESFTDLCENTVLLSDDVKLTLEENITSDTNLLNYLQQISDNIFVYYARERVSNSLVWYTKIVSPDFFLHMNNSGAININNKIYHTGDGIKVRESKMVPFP

crystal structure = target: the molecule itself; assay: crystal structure

B1: McbB (natural protein, Escherichia coli)
chain: MVLPDIKKGKDMINILPFEIISRNTKTLLITYISSVDITHEGMKKVLESLRSKQGIISEYLLDKLLDESLIDKDKGKEFLITTGVINKTKTSPLWVNSVIISDVPHLFSNAREQWKCDGVFVSHIIDIKDNNINVSDSTLIWLHLENYHSDIVKRIYSKFESNPGVAFIQSYYLKESFRIDGVYSPDLGTPCHFCHIERWLSREEKSFRRNEMSWANLLQLLKKYQMTLPALALGESERGFSYHLIKRRLQELTGTSLVKSHVDNFMSSVSADLITCILCKEPVIHWQACSCLER
B1 was tested, and the binding result (McbD) was “binds” and the “stoichiometry N” value (crystal structure) was 2.

Source: publication PMC6395948 (Molecular Cell, 2019)
